Source: the supplement of paper PMC11316812
± gives the standard deviation of the averaged measurements.

Assays:
MCF7 = assay: percentage of EdU-negative (G0-arrested) nuclei per well, 72 h; higher = more G0 arrest; conditions: reference: sequence is the full UniProt precursor, the tested protein was the secreted form or ectodomain
hTERT-HMEC = assay: as above; conditions: reference: sequence is the full UniProt precursor, the tested protein was the secreted form or ectodomain
[1] = protein concentration 0.0225 µM
[2] = protein concentration 0.0357143 µM
[3] = protein concentration 0.357143 µM
[4] = protein concentration 0.02275 µM
[5] = protein concentration 0.2275 µM
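Note: secreted proteins added to cultured cells, EdU pulse at the end, nuclei found by Hoechst imaging, EdU status from nuclear versus surrounding ring intensity ratio, PBS as neutral control.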

With “MAPLRPLLILALLAWVALADQESCKGRCTEGFNVDKKCQCDELCSYYQSCCTDYTAECKPQVTRGDVFTMPEDEYTVYDDGEEKNNATVHEQVGGPSLTSDLQAQSKGNPEQTPVLKPEEEAPAPEVGASKPEGIDSRPETLHPGRPQPPAEEELCSGKPFDAFTDLKNGSLFAFRGQYCYELDEKAVRPGYPKLIRDVWGIEGPIDAAFTRINCQGKTYLFKGSQYWRFEDGVLDPDYPRNISDGFDGIPDNVDAALALPAHSYSGRERVYFFKGKQYWEYQFQHQPSQEECEGSSLSAVFEHFAMMQRDSWEDIFELLFWGRTSAGTRQPQFISRDWHGVPGQVDAAMAGRIYISGMAPRPSLAKKQRFRHRNRKGYRSQRGHSRGRNQNSRRPSRATWLSLFSSEESNLGANNYDDYRMDWLVPATCEPIQSVFFFSGDKYYRVNLRTRRVDTVDPPYPRSIAQYWLGCPAPGHL” the “percentage of EdU-negative” value (MCF7; [1]) was 25.1 ± 3.1%, the “percentage of EdU-negative” value (MCF7; protein concentration 0.225 µM) was 31.11 ± 0.19% and the “percentage of EdU-negative” value (hTERT-HMEC; [1]) was 5.37 ± 0.14%. The “percentage of EdU-negative” value (hTERT-HMEC; protein concentration 0.225 µM) was 4.7 ± 1.1%.

In the case of “MPALGWAVAAILMLQTAMAEPSPGTLPRKAGVFSDLSNQELKAVHSFLWSKKELRLQPSSTTTMAKNTVFLIEMLLPKKYHVLRFLDKGERHPVREARAVIFFGDQEHPNVTEFAVGPLPGPCYMRALSPRPGYQSSWASRPISTAEYALLYHTLQEATKPLHQFFLNTTGFSFQDCHDRCLAFTDVAPRGVASGQRRSWLIIQRYVEGYFLHPTGLELLVDHGSTDAGHWAVEQVWYNGKFYGSPEELARKYADGEVDVVVLEDPLPGGKGHDSTEEPPLFSSHKPRGDFPSPIHVSGPRLVQPHGPRFRLEGNAVLYGGWSFAFRLRSSSGLQVLNVHFGGERIAYEVSVQEAVALYGGHTPAGMQTKYLDVGWGLGSVTHELAPGIDCPETATFLDTFHYYDADDPVHYPRALCLFEMPTGVPLRRHFNSNFKGGFNFYAGLKGQVLVLRTTSTVYNYDYIWDFIFYPNGVMEAKMHATGYVHATFYTPEGLRHGTRLHTHLIGNIHTHLVHYRVDLDVAGTKNSFQTLQMKLENITNPWSPRHRVVQPTLEQTQYSWERQAAFRFKRKLPKYLLFTSPQENPWGHKRTYRLQIHSMADQVLPPGWQEEQAITWARYPLAVTKYRESELCSSSIYHQNDPWHPPVVFEQFLHNNENIENEDLVAWVTVGFLHIPHSEDIPNTATPGNSVGFLLRPFNFFPEDPSLASRDTVIVWPRDNGPNYVQRWIPEDRDCSMPPPFSYNGTYRPV”, the “percentage of EdU-negative” value (MCF7; protein concentration 0.019 µM) is reported as 25 ± 4.8%, the “percentage of EdU-negative” value (MCF7; protein concentration 0.19 µM) is reported as 29.1 ± 1.2% and the “percentage of EdU-negative” value (hTERT-HMEC; protein concentration 0.019 µM) is reported as 5.16 ± 1.3%. The “percentage of EdU-negative” value (hTERT-HMEC; protein concentration 0.19 µM) was 11 ± 0.68%.

With “MTALFLMSMLFGLTCGQAMSFCIPTEYTMHIERRECAYCLTINTTICAGYCMTRDINGKLFLPKYALSQDVCTYRDFIYRTVEIPGCPLHVAPYFSYPVALSCKCGKCNTDYSDCIHEAIKTNYCTKPQKSYLVGFSV” the “percentage of EdU-negative” value (MCF7; protein concentration 0.017 µM) was 27.8 ± 3.8%, the “percentage of EdU-negative” value (MCF7; protein concentration 0.17 µM) was 27.2 ± 1.9% and the “percentage of EdU-negative” value (hTERT-HMEC; protein concentration 0.017 µM) was 5.28 ± 0.69%. For the same sequence, the “percentage of EdU-negative” value (hTERT-HMEC; protein concentration 0.17 µM) was 9.97 ± 1.1%.

In the case of “MELWGAYLLLCLFSLLTQVTTEPPTQKPKKIVNAKKDVVNTKMFEELKSRLDTLAQEVALLKEQQALQTVCLKGTKVHMKCFLAFTQTKTFHEASEDCISRGGTLGTPQTGSENDALYEYLRQSVGNEAEIWLGLNDMAAEGTWVDMTGARIAYKNWETEITAQPDGGKTENCAVLSGAANGKWFDKRCRDQLPYICQFGIV”, the “percentage of EdU-negative” value (MCF7; [2]) is reported as 23.3 ± 2.7%, the “percentage of EdU-negative” value (MCF7; [3]) is reported as 26.7 ± 0.6% and the “percentage of EdU-negative” value (hTERT-HMEC; [2]) is reported as 5.64 ± 0.21%. For the same sequence, the “percentage of EdU-negative” value (hTERT-HMEC; [3]) was 25.4 ± 5%.

In the case of “MGILKLQVFLIVLSVALNHLKATPIESHQVEKRKCNTATCATQRLANFLVHSSNNFGAILSSTNVGSNTYGKRNAVEVLKREPLNYLPL”, the “percentage of EdU-negative” value (MCF7; [4]) is reported as 26.1 ± 1.4%, the “percentage of EdU-negative” value (MCF7; [5]) is reported as 26.8 ± 4.2% and the “percentage of EdU-negative” value (hTERT-HMEC; [4]) is reported as 4.22 ± 0.57%. For the same sequence, the “percentage of EdU-negative” value (hTERT-HMEC; [5]) was 5.2 ± 0.82%.
